Assay results from patent US20200079833A1 (AstraZeneca / MedImmune, published 2020).
Starred links: 1 amine or outer side, 2 acyl side, 3 side chain; linkers in the order of their positions; H or OH if unused. Non-standard residues stand in square brackets, D forms with d. Groups on a side chain read outwards from the residue. Primed or numbered codes have the meaning given here. No end group written: not given here. *: point of attachment. γGlu = O=C(O)[C@H](CCC(=O)[*:2])N[*:1]; Palmitoyl = CCCCCCCCCCCCCCCC(=O)*; αMeF = C[C@](N)(Cc1ccccc1)C(=O)O; αMeK = C[C@](N)(CCCCN)C(=O)O; Lauroyl = CCCCCCCCCCCC(=O)*; αMeS = C[C@](N)(CO)C(=O)O; PEG2′ = not defined here; Aib = CC(C)(N)C(=O)O

T1: GLP-1R in the INS1e assay (UniProt P32301 22-463, limits assumed)
T1 sequence (looked up): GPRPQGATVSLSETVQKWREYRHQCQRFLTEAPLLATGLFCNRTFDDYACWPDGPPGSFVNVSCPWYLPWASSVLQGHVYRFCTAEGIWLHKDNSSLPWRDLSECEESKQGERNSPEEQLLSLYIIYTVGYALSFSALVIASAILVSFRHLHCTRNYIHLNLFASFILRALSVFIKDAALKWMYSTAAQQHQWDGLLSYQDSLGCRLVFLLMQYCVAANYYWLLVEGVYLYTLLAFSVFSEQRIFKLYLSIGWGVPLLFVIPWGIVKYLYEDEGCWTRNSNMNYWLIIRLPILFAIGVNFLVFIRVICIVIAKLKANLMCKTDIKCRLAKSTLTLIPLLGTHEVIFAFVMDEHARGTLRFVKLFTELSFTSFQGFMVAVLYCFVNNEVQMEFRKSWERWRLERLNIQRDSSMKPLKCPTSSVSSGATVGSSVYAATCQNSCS

T2: glucose-dependent insulinotropic peptide (gastric inhibitory polypeptide) receptor (GIPR), primary cAMP assay (human, UniProt P48546 22-466)
T2 sequence (looked up): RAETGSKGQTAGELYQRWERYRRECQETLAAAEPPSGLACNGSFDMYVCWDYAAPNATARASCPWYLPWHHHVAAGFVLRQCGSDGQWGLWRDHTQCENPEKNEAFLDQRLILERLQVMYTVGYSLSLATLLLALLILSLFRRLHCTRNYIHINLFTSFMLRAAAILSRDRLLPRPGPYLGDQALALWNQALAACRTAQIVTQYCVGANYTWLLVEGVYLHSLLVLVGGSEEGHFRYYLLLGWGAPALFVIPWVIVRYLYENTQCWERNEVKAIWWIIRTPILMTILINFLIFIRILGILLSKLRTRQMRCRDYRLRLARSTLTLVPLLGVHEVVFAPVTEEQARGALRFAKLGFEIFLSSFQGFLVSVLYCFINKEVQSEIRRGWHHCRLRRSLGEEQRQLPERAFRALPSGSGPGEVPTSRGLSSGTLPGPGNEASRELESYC


Experiments:
Assay in all cases: cell-based or functional assay
[1] = target: T1, GLP-1R in the INS1e assay
[2] = target: glucagon receptor (GCGR), primary cAMP assay (human, UniProt P47871 26-477)
[3] = target: GLP-1 receptor (GLP-1R), primary cAMP assay (human, UniProt P43220 24-463)
[4] = target: T2, glucose-dependent insulinotropic …

Sequence of glucagon receptor (GCGR), primary cAMP assay (P47871 26-477): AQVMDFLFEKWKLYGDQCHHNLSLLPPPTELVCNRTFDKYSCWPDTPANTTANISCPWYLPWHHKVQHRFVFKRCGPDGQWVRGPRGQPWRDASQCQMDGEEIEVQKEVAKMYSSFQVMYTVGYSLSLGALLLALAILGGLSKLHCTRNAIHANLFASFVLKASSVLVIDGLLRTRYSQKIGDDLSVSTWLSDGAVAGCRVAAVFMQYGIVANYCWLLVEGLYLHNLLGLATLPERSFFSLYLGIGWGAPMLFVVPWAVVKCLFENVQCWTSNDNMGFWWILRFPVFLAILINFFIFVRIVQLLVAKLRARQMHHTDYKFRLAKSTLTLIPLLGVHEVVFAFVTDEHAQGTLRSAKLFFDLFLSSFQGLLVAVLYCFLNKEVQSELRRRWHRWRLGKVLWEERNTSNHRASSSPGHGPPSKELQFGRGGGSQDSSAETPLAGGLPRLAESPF

Binder | INS1e assay EC50 (cAMP) Mean [1] [nM] | INS1e assay EC50 (cAMP) n1 [1] [nM] | INS1e assay EC50 (cAMP) n2 [1] [nM] | Primary assay EC50 (cAMP), n1 [2] [nM] | Primary assay EC50 (cAMP), n2 [2] [nM] | Primary assay EC50 (cAMP) Mean [3] [nM] | Primary assay EC50 (cAMP), n1 [3] [nM] | Primary assay EC50 (cAMP), n2 [3] [nM] | Primary assay EC50 (cAMP), n1 [4] [nM] | Primary assay EC50 (cAMP), n2 [4] [nM]
H[Aib]EGS[αMeF]TSDVSK([PEG2′-PEG2′-γGlu-Palmitoyl])FLEGEAAEEFIK([PEG2′-PEG2′-γGlu-Palmitoyl])FVVEGG-NH2 [SEQ ID NO: 247] | 72.1 | 72.1 | 72.1 | 21.6 | 21.6 | 1.67 | 1.31 | 2.02 | 21.6 | 21.6
H[Aib]EGS[αMeF]TSDVSK([PEG2′-PEG2′-γGlu-Palmitoyl])YLEGEAAEEFIK([PEG2′-PEG2′-γGlu-Palmitoyl])WVVEGG-NH2 [SEQ ID NO: 246] | 71.3 | 71.3 | 71.3 | 21.4 | 21.4 | 1.4 | 0.999 | 1.8 | 21.4 | 21.4
H[Aib]EGS[αMeF]TSDV[αMeS]SYK([PEG2′-PEG2′-γGlu-Palmitoyl])EGEAA[αMeK]EFIAWK([PEG2′-PEG2′-γGlu-Palmitoyl])VEGG-NH2 [SEQ ID NO: 273] | – | – | – | 21.5 | 21.5 | 0.762 | 0.741 | 0.783 | 21.5 | 21.5
H[Aib]EGTFTSDVSK([PEG2′-PEG2′-γGlu-Lauroyl])YLEGEAAEEFIK([PEG2′-PEG2′-γGlu-Lauroyl])WVVEGG-NH2 [SEQ ID NO: 236] | 12.3 | 12 | 12.7 | 22.2 | 22.2 | 0.0217 | 0.0165 | 0.0268 | 22.2 | 22.2
H[Aib]EGS[αMeF]TSDVSK([PEG2′-PEG2′-γGlu-Lauroyl])FLEGEAAEEFIK([PEG2′-PEG2′-γGlu-Lauroyl])FVVEGG-NH2 [SEQ ID NO: 241] | 6.28 | 5.84 | 6.71 | 22.5 | 22.5 | 0.0096 | 0.00755 | 0.0116 | 22.5 | 22.5
H[Aib]EGS[αMeF]TSDVSK([PEG2′-PEG2′-γGlu-Lauroyl])FLEGEAA[αMeK]EFIK([PEG2′-PEG2′-γGlu-Lauroyl])FVVEGG-NH2 [SEQ ID NO: 248] | 0.403 | 0.337 | 0.468 | 22.4 | 22.4 | 0.005 | 0.00377 | 0.0062 | 22.4 | 22.4
H[Aib]EGTFTSDVSK([PEG2′-PEG2′-γGlu-Lauroyl])FLEGEAAEEFIK([PEG2′-PEG2′-γGlu-Lauroyl])FVVEGG-NH2 [SEQ ID NO: 239] | 13 | 14.7 | 11.2 | 22.5 | 22.5 | 0.0074 | 0.0063 | 0.00845 | 22.5 | 22.5
H[Aib]EGS[αMeF]TSDV[αMeS]SYK([PEG2′-PEG2′-γGlu-Palmitoyl])EGEAA[αMeK]EFIAK([PEG2′-PEG2′-γGlu-Palmitoyl])VVEGG-NH2 [SEQ ID NO: 272] | – | – | – | 21.9 | 21.9 | 0.335 | 0.339 | 0.331 | 21.9 | 21.9
H[Aib]EGTFTSDVSK([PEG2′-PEG2′-γGlu-Lauroyl])YLEGEAAEEFIK([PEG2′-PEG2′-γGlu-Lauroyl])FVVEGG-NH2 [SEQ ID NO: 238] | 13.7 | 15 | 12.4 | 22.4 | 22.4 | 0.011 | 0.00875 | 0.0132 | 22.4 | 22.4
H[Aib]EGTFTSDVSK([PEG2′-PEG2′-γGlu-Lauroyl])FLEGEAAEEFIK([PEG2′-PEG2′-γGlu-Lauroyl])WVVEGG-NH2 [SEQ ID NO: 237] | 19.3 | 14.3 | 24.3 | 22.3 | 22.3 | 0.0209 | 0.0195 | 0.0223 | 22.3 | 22.3
H[Aib]EGS[αMeF]TSDV[αMeS]SYK([PEG2′-PEG2′-γGlu-Palmitoyl])EGEAA[αMeK]EFIK([PEG2′-PEG2′-γGlu-Palmitoyl])WVVEGG-NH2 [SEQ ID NO: 271] | – | – | – | 21.4 | 21.4 | 0.821 | 0.891 | 0.75 | 21.4 | 21.4
H[Aib]EGS[αMeF]TSDVSK([PEG2′-PEG2′-γGlu-Lauroyl])YLEGEAAEEFIK([PEG2′-PEG2′-γGlu-Lauroyl])WVVEGG-NH2 [SEQ ID NO: 240] | 6.02 | 6.86 | 5.17 | 22.2 | 22.2 | 0.014 | 0.0109 | 0.0171 | 22.2 | 22.2
